# Reference: US20140072613A1 (published 2014)
# T1: SGK2(h) (human, UniProt Q9HBY8 1-367, limits assumed)
# T1 sequence (looked up): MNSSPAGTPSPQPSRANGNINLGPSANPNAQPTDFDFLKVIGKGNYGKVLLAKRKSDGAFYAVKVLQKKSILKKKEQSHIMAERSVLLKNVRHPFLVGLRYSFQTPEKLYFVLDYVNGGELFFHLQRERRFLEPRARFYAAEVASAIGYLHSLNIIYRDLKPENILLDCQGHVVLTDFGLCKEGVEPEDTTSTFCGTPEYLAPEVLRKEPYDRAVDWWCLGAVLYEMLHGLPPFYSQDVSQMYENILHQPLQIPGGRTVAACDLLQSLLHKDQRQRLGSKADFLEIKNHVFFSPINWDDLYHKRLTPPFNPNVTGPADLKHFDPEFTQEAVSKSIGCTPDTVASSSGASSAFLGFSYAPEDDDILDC
# T2: TAO1(h) (human, UniProt Q7L7X3 1-314, limits assumed)
# T2 sequence (looked up): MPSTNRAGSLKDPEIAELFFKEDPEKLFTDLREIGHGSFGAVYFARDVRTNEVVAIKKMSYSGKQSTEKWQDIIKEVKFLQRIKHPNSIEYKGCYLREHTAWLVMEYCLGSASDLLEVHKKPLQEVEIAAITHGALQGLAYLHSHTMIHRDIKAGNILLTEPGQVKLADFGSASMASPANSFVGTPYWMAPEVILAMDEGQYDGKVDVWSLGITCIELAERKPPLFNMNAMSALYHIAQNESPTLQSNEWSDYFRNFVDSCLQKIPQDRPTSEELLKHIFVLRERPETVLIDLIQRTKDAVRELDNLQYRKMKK
# T3: DCAMKL2(h) (human, UniProt Q8N568 372-714, limits assumed)
# T3 sequence (looked up): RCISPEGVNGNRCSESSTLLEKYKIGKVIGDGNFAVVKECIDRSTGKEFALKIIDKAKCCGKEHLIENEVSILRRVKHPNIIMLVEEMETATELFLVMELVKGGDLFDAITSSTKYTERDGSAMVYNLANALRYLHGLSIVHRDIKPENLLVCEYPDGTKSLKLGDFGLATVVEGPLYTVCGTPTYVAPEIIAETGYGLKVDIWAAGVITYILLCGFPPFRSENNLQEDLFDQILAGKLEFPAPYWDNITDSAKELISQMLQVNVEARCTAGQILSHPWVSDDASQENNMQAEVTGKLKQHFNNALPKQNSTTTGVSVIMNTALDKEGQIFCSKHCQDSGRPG
# T4: EphA4(h) (human, UniProt P54764 570-986, limits assumed)
# T4 sequence (looked up): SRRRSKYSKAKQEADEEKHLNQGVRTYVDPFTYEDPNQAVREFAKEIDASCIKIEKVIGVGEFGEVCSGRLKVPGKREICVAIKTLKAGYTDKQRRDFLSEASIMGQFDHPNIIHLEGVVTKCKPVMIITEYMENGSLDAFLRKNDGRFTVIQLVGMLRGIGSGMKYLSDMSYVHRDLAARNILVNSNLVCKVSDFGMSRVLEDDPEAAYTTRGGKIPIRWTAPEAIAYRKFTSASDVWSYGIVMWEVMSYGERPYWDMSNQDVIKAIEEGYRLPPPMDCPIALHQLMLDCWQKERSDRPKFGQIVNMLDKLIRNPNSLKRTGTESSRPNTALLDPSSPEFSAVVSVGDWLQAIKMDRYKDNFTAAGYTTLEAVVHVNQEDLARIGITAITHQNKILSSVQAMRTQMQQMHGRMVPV
# T5: Flt1(h) (human, UniProt P17948 781-1338, limits assumed)
# T5 sequence (looked up): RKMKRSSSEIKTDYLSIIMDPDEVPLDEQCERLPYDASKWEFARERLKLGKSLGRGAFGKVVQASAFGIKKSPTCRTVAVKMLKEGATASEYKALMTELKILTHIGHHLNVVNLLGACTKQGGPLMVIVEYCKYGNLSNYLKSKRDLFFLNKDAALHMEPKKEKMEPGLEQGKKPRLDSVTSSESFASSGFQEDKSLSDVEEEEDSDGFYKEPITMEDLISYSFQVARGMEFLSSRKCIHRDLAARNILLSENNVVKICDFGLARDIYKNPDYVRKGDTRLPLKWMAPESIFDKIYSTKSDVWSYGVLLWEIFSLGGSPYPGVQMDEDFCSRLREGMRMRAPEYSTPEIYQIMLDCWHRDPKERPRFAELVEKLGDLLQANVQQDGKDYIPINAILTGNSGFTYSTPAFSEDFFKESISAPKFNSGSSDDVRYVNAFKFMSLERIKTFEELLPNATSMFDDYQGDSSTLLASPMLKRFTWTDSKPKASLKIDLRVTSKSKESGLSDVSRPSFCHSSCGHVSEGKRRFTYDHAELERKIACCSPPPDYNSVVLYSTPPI
# Tests used:
# Experiment in all cases: cell-based or functional assay
# Met(h) = Met(h) (human, UniProt P08581 956-1390, limits assumed)
# MSSK1(h) = MSSK1(h) (human, UniProt Q9UPE1 1-567, limits assumed)
# Pim-3(h) = Pim-3(h) (human, UniProt Q86V86 1-326)
# Rsk4(h) = Rsk4(h) (human, UniProt Q9UK32 1-745, limits assumed)
# SGK2(h) = biological target: T1, SGK2(h)
# TAO1(h) = biological target: T2, TAO1(h)
# Yes(h) = Yes(h) (human, UniProt P07947 1-543)
# CK1γ2(h) = CK1γ2(h) (human, UniProt P78368 1-415)
# DCAMKL2(h) = biological target: T3, DCAMKL2(h)
# EGFR(T790M)(h) = EGFR(T790M)(h) (human, UniProt P00533 696-1210, limits assumed)
# EphA4(h) = biological target: T4, EphA4(h)
# Flt1(h) = biological target: T5, Flt1(h)
Binder,"% activity, 100 µM (Met(h)) [%]","% activity, 100 µM (MSSK1(h)) [%]","% activity, 100 µM (Pim-3(h)) [%]","% activity, 100 µM (Rsk4(h)) [%]","% activity, 100 µM (SGK2(h)) [%]","% activity, 100 µM (TAO1(h)) [%]","% activity, 100 µM (Yes(h)) [%]","% activity, 100 µM (CK1γ2(h)) [%]","% activity, 100 µM (DCAMKL2(h)) [%]","% activity, 100 µM (EGFR(T790M)(h)) [%]","% activity, 100 µM (EphA4(h)) [%]","% activity, 100 µM (Flt1(h)) [%]"
FAKLAARLYRKALARQLGVAA [MMI-0300],65,77,80,90,56,82,67,123,81,100,88,69
KAFAKLAARLYRKALARQLGVAA [MMI-0400],62,75,80,91,98,73,14,114,70,106,65,48
